Measured values from patent US20030229003, “Use of transcription factors for treating inflammation and other diseases” (published 2003).

Legend:
ESE-1 (ELF3) [1] = molecular target: T1, ESE-1 (ELF3) (Homo sapiens, UniProt P78545 P78545:1-371); assay: cell_activity
T1 sequence: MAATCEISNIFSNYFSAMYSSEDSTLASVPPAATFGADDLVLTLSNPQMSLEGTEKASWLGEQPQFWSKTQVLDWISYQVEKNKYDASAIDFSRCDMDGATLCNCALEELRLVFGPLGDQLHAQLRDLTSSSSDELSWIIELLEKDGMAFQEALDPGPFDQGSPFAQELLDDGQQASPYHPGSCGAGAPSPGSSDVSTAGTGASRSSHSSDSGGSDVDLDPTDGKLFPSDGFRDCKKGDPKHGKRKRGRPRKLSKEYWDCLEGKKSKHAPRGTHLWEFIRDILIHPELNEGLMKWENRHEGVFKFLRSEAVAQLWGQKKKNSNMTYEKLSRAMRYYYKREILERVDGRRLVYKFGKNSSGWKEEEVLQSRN

ESE-1 (ELF3) [2] = molecular target: T1, ESE-1 (ELF3); assay: EMSA; strong specific complex; data not shown; details: tags: pCI/ESE-1, TNT rabbit reticulocyte lysate; label: 32P
ESE-1 (ELF3) [3] = molecular target: T1, ESE-1 (ELF3); assay: EMSA; details: tags: pCI/ESE-1, TNT rabbit reticulocyte lysate; label: 32P
Protocol: Having identified putative targets for ESE- 1 we were also interested to determine whether ESE- 1 could specifically bind to Ets sites within the NOS2 promoter. An Ets binding site was identified which is highly homologous to the Ets consensus binding site for ESE- 1 (Oettgen, P., et al., 1999, J Biol Chem 274:29439-52). […] As is shown in FIG. 6, ESE- 1 binds equally well to both Ets sites.
In vitro transcription-translation was performed in TNT rabbit reticulocyte lysate (Promega) using the pCI/ESE- 1 vector as described (Oettgen, P., et al. et al. 1997, Mol Cell Biol 17:4419-33). EMSAs and supershift assays were performed using 2 μl of in vitro translation product or 3 μl of whole cell extract and (³²P)-labeled double stranded oligonucleotide probes in the presence or absence of competitor oligonucleotides (1, 10 or 100 ng) or antibodies as described (Akbarali, Y., et al. 1996. J Biol Chem 271:26007-12). Whole cell extracts were made from U- 138 Mg cells after incubation with IL-1β for 0, 3, and 8 hours using as lysis buffer 1% Triton X- 100, 25 mM glycylglycine pH7.8, 15 mM MgSO₄, 4 mM EGTA, 1 mM dithiothreitol, phenylmethylsulfonyl fluoride, Aprotinin, and Pepstatin. All antibodies for super-shift assays (2 μl per assay) were obtained from Santa-Cruz Technologies (CA) (Oettgen, P., et al. 1996, Mol Cell Biol 16:5091-106).

NOS2 promoter -234/+31
activity (ESE-1 (ELF3) [1]; luciferase transactivation, RAW cells, promoter length in Example 1M not stated): 12 fold

COX-2 promoter -170/+103
activity (ESE-1 (ELF3) [1]; luciferase, RAW 264.7): > 10 fold

B1: COX-2 promoter Ets site 1 (dsDNA)
DNA 1: GCACGTCCAGGAACTCCTCAGC
DNA 2: GCTGAGGAGTTCCTGGACGTGC
binding result (ESE-1 (ELF3) [2]): binds

B2: murine PSP promoter Ets site (dsDNA)
DNA 1: TCGACGAACATCCAGGAAATAGGGCTC
DNA 2: TCGAGAGCCCTATTTCCTGGATGTTCG
binding result (ESE-1 (ELF3) [3]): binds

B3: COX-2 promoter Ets site 3 (dsDNA)
DNA 1: CGAAAAGGCGGAAAGAAACAGT
DNA 2: ACTGTTTCTTTCCGCCTTTTCG
binding result (ESE-1 (ELF3) [2]): binds
